Experimental data reported in patent US10280205B2, “Method for treating cancer with an activated T lymphocyte that selectively recognizes a cancer cell consisting of specific peptide” (immatics biotechnologies GmbH, priority 2015, dated 2019).

Target: HLA-A*02:01 (Homo sapiens, UniProt P04439, D140Y/D185E/D98H/E176V/E277Q/G131W/G231S/I119V/I121R/I166T/I218V/L300P/L318F/N151K/N90K/P208A/P217A/Q86G/Q94H/R138H/R169H/T345S)
Assay: MHC binding assay: UV-ligand exchange with beta2m ELISA (exchange yield)
Settings: binding to HLA-A*02:01, β2m ELISA
In short: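 Exchange yield reflects how much β2m remains bound, measured by ELISA: streptavidin capture of 100-fold diluted monomers, HRP anti-β2m at 37° C. for 1 h, TMB read at 450 nm. Monomers come from UV cleavage of a conditional HLA-A*02:01 ligand in the presence of the candidate peptide.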

Peptide exchange (MHC class I binding score, peptide exchange yield)	Substance
“++” (≥20% = ++)	185 (FLIDDKGYTL; listed as Homo sapiens) [compound 185]
“+++” (≥50 = +++)	34 (ILVEADSLWVV; listed as Homo sapiens) [compound 34]
“+++” (≥50 = +++)	512 (SLSEIVPCL; listed as Homo sapiens) [compound 512]
“+++” (≥50 = +++)	469 (YLASDEITTV; listed as Homo sapiens) [compound 469]
“++” (≥20% = ++)	63 (YLLPSGGSVTL; listed as Homo sapiens) [compound 63]
“+++” (≥50 = +++)	582 (TLCDVILMV; listed as Homo sapiens) [compound 582]
“++++” (≥75% = ++++)	55 (SLLDLETLSL; listed as Homo sapiens) [compound 55]
“+++” (≥50 = +++)	205 (SLYPGTETMGL; listed as Homo sapiens) [compound 205]
“+++” (≥50 = +++)	74 (ALLDPEVLSIFV; listed as Homo sapiens) [compound 74]
“+++” (≥50 = +++)	134 (YLQELIFSV; listed as Homo sapiens) [compound 134]
“+++” (≥50 = +++)	472 (KLLEVSDDPQV; listed as Homo sapiens) [compound 472]
“+++” (≥50 = +++)	449 (KLAEGLDIQL; listed as Homo sapiens) [compound 449]
“++” (≥20% = ++)	114 (SLVGEPILQNV; listed as Homo sapiens) [compound 114]
“++” (≥20% = ++)	453 (KLLEATSAV; listed as Homo sapiens) [compound 453]
“++” (≥20% = ++)	408 (VLDDSIYLV; listed as Homo sapiens) [compound 408]
“+++” (≥50 = +++)	200 (LLFGSVQEV; listed as Homo sapiens) [compound 200]
“++++” (≥75% = ++++)	371 (FLQAHLHTA; listed as Homo sapiens) [compound 371]
“+++” (≥50 = +++)	125 (VQIHQVAQV; listed as Homo sapiens) [compound 125]
“++” (≥20% = ++)	409 (LLDAMNYHL; listed as Homo sapiens) [compound 409]
“++” (≥20% = ++)	372 (TMLLNIPLV; listed as Homo sapiens) [compound 372]
“+++” (≥50 = +++)	597 (KLLEGQVIQL; listed as Homo sapiens) [compound 597]
“++” (≥20% = ++)	447 (QLVPALAKV; listed as Homo sapiens) [compound 447]
“++++” (≥75% = ++++)	339 (GLWEIENNPTVKA; listed as Homo sapiens) [compound 339]

Peptide exchange (MHC class I binding score, peptide exchange yield)	Substance
“++” (≥20% = ++)	524 (ALIENLTHQI; listed as Homo sapiens) [compound 524]
“+++” (≥50 = +++)	556 (FLTDLEDLTL; listed as Homo sapiens) [compound 556]
“+++” (≥50 = +++)	28 (QLLDETSAITL; listed as Homo sapiens) [compound 28]
“++++” (≥75% = ++++)	303 (AILPQLFMV; listed as Homo sapiens) [compound 303]
“+++” (≥50 = +++)	167 (KVLEVTEEFGV; listed as Homo sapiens) [compound 167]
“++” (≥20% = ++)	363 (KVLDVSDLESV; listed as Homo sapiens) [compound 363]
“++” (≥20% = ++)	180 (FQIDPHSGLVTV; listed as Homo sapiens) [compound 180]
“+++” (≥50 = +++)	110 (FLSQVDFEL; listed as Homo sapiens) [compound 110]
“+++” (≥50 = +++)	493 (GLLGEKTQDLIGV; listed as Homo sapiens) [compound 493]
“++++” (≥75% = ++++)	104 (STMEQNFLL; listed as Homo sapiens) [compound 104]
“++” (≥20% = ++)	574 (YLLQEPPRTV; listed as Homo sapiens) [compound 574]
“++” (≥20% = ++)	461 (VMFRTPLASV; listed as Homo sapiens) [compound 461]
“++++” (≥75% = ++++)	89 (YILPTETIYV; listed as Homo sapiens) [compound 89]
“+++” (≥50 = +++)	334 (TLTKVLVAL; listed as Homo sapiens) [compound 334]
“+++” (≥50 = +++)	518 (KLNAEVACV; listed as Homo sapiens) [compound 518]
“+++” (≥50 = +++)	502 (RLLAQVPGL; listed as Homo sapiens) [compound 502]
“+++” (≥50 = +++)	330 (QLALKVEGV; listed as Homo sapiens) [compound 330]
“+++” (≥50 = +++)	635 (SLDSTLHAV; listed as Homo sapiens) [compound 635]
“++++” (≥75% = ++++)	320 (KMFEFVEPLL; listed as Homo sapiens) [compound 320]
“+++” (≥50 = +++)	370 (SLLQDLVSV; listed as Homo sapiens) [compound 370]
“++” (≥20% = ++)	44 (ILDPISSGFLL; listed as Homo sapiens) [compound 44]
“+++” (≥50 = +++)	187 (RQISIRGIVGV; listed as Homo sapiens) [compound 187]
“+++” (≥50 = +++)	184 (YLMDINGKMWL; listed as Homo sapiens) [compound 184]

Peptide exchange (MHC class I binding score, peptide exchange yield)	Substance
“++” (≥20% = ++)	405 (ALYDVFLEV; listed as Homo sapiens) [compound 405]
“++” (≥20% = ++)	211 (LLWPGAALL; listed as Homo sapiens) [compound 211]
“++” (≥20% = ++)	380 (TLIEDEIATI; listed as Homo sapiens) [compound 380]
“+++” (≥50 = +++)	600 (ALAAPDIVPAL; listed as Homo sapiens) [compound 600]
“++” (≥20% = ++)	233 (VLSETLYEL; listed as Homo sapiens) [compound 233]
“+++” (≥50 = +++)	327 (GLAPFTEGISFV; listed as Homo sapiens) [compound 327]
“+++” (≥50 = +++)	152 (ILFEDIFDV; listed as Homo sapiens) [compound 152]
“++” (≥20% = ++)	242 (AIAYILQGV; listed as Homo sapiens) [compound 242]
“+++” (≥50 = +++)	399 (YLFEPLYHV; listed as Homo sapiens) [compound 399]
“+++” (≥50 = +++)	326 (FLPEALDFV; listed as Homo sapiens) [compound 326]
“+++” (≥50 = +++)	271 (LVYPLELYPA; listed as Homo sapiens) [compound 271]
“++” (≥20% = ++)	277 (LLPPLESLATV; listed as Homo sapiens) [compound 277]
“+++” (≥50 = +++)	244 (SLFGGTEITI; listed as Homo sapiens) [compound 244]
“+++” (≥50 = +++)	598 (FLFPHSVLV; listed as Homo sapiens) [compound 598]
“+++” (≥50 = +++)	618 (VLFDSESIGIYV; listed as Homo sapiens) [compound 618]
“+++” (≥50 = +++)	352 (SLLELLHIYV; listed as Homo sapiens) [compound 352]
“+++” (≥50 = +++)	488 (FLAEDPKVTL; listed as Homo sapiens) [compound 488]
“++++” (≥75% = ++++)	527 (FLLEPGNLEV; listed as Homo sapiens) [compound 527]
“++” (≥20% = ++)	504 (GLSDGNPSL; listed as Homo sapiens) [compound 504]
“++” (≥20% = ++)	209 (KLIESKHEV; listed as Homo sapiens) [compound 209]
“+++” (≥50 = +++)	224 (TLIDAQWVL; listed as Homo sapiens) [compound 224]
